Measurements as given in patent publication US9018171B2, “Uses of an immunomodulatory protein (GMI) from Ganoderma microsporum” (Mycomagic Biotechnology Co., Ltd., priority 2010, dated 2015).
Entries after “also recorded” stand apart in the source; their conditions may differ. Like-named read-outs stand apart in the source and are kept apart here.

Legend:
A549 cells [1] = experiment: Wound-healing assay; assay type: cell-based, human; details: 24 h
Method: Wound-healing assay was carried out to evaluate the inhibitory effects of (A) GMI or (B) AG1478 on A549 cell migration. Confluent monolayers of A549 cells were scarred, and repair was monitored microscopically after 24 h of treatment with (A) GMI or (B) AG1478. The cells migrating into the wound area were counted on the basis of the dashed line as time zero. On wound-healing assay, the cancer cells were cultured onto 24-well plates and grown in medium containing 10% FBS to nearly confluent cell monolayer. A plastic pipette tip was used to draw a linear “wound” in the cell monolayer of each well. The monolayer was then washed twice with PBS to remove debris or detached cells, and GMI was added at different concentrations ([…]). PBS was added to the control well as the solvent control. After 24 h of incubation, the cells were washed twice with PBS, fixed with 95% alcohol, and stained with 10% Giemsa solution (Merck). The cells were photographed under a light microscope (magnification, ×200). The experiments were performed in triplicate. After incubation with 2-8 μg/ml of GMI for 24 h, the cells that migrated to the denuded zone were photographed.

A549 cells [2] = experiment: Cell invasion assay (modified Boyden chamber, Matrigel); assay type: cell-based, human
Method: A549 cells (2×10^4 cells/well) were seeded onto the upper chamber of membrane and treated with different concentrations of GMI (4, 8, 16 μg/ml) for 2 hours. The bottom chamber was filled with DMEM supplemented with EGF 10 ng/ml or 100 ng/ml. After about 24 h, the invasive A549 cells passed through the membrane and were quantified by counting the cells that migrated onto the membrane. Cells were fixed, stained, and counted as described in the text. The data represent mean±SD.
Cell invasion assays were performed using modified Boyden chambers 6.5 mm in diameter, with […] porous (8 μm) polycarbonate membrane separating the two chambers (Transwell; Costar, Cambridge, Mass.). The membrane of the upper chamber was coated with Matrigel (0.3 mg/mL; BD Biosciences Discovery Labware) for 3 hours. Condition medium was prepared from A549 cells which were pretreated with or without GMI, LY294002 (50 μM), or AG1478 (2 μM) for 8 h. To the medium of the bottom chamber was added 10% FBS-DMEM containing EGF (10 ng/ml) or condition medium. Cells were trypsinized, centrifuged, and resuspended at 4×10^5 cells/mL in 0.5% FBS-DMEM. After 24 h incubation, the cells on the upper well and the membranes coated with Matrigel were fixed with methanol, and stained with 20% Giemsa solution (Merck). The cells that were attached to the lower surface of the polycarbonate filter were counted under a light microscope (magnification, X 100). The experiments were performed in triplicate.

HL-60(TB) = assay type: cell-based
MOLT-4 = experiment: NCI60 in vitro screening, Leukemia; assay type: cell-based
MALME-3M = experiment: NCI60 in vitro screening, Melanoma; assay type: cell-based
SK-MEL-28 = experiment: NCI60 in vitro screening, Melanoma; assay type: cell-based
IGROV1 = experiment: NCI60 in vitro screening, Ovarian Cancer; assay type: cell-based
OVCAR-8 = experiment: NCI60 in vitro screening, Ovarian Cancer; assay type: cell-based
786-0 = experiment: NCI60 in vitro screening, Renal Cancer; assay type: cell-based
TK-10 = experiment: NCI60 in vitro screening, Renal Cancer; assay type: cell-based
DU-145 = experiment: NCI60 in vitro screening, Prostate Cancer; assay type: cell-based
HS 578T = experiment: NCI60 in vitro screening, Breast Cancer; assay type: cell-based
SK-MEL-2 = experiment: NCI60 in vitro screening, Melanoma; assay type: cell-based; details: SK-MEL-2, one dose

B1: GMI: immunomodulatory protein from Ganoderma microsporum, amino acid sequence SEQ ID NO: 3, manufactured by Mycomagic Biotechnology Co., Ltd. (protein, listed as Ganoderma microsporum)
chain: MSDTALIFTLAWNVKQLAFDYTPNWGRGRPSSFIDTVTFPTVLTDKAYTYRVVVSGKDLGVRPSYAVESDGSQKINFLEYNSGYGIADTNTIQVYVIDPDTGNNFIVAQWN
A549 cell migration to the denuded zone (A549 cells [1]; GMI 2-8 μg/ml): dose-dependently suppresses A549 cell migration
EGF-induced migration / wound closure activity (A549 cells [1]; co-treated with EGF): markedly decreased wound closure activity
EGF-promoted invasion reduced to (A549 cells [2]; GMI 4 μg/ml, EGF): 52%
invaded cell number (A549 cells [2]; GMI 4 μg/ml, EGF, decreased from 2515±212): 1306±30
invasion reduced to (A549 cells [2]; GMI 4 μg/ml, without EGF): 22%
invaded cell number (A549 cells [2]; GMI 4 μg/ml, without EGF, decreased from 1895±37): 419±6
EGF-promoted invasion reduced to (A549 cells [2]; GMI 16 μg/ml, EGF): less than 5%
invaded cell number (A549 cells [2]; GMI 16 μg/ml, EGF, decreased from 2515±212): 121±39
invasion reduced to (A549 cells [2]; GMI 16 μg/ml, without EGF): less than 9%
invaded cell number (A549 cells [2]; GMI 16 μg/ml, without EGF, decreased from 1895±37): 61±3
EGF-promoted invasion of A549 cells (A549 cells [2]; increasing concentrations of GMI, EGF): significantly inhibits; also recorded: dose-dependent decrease in EGF-promoted invasion
invasion of A549 cells (A549 cells [2]; increasing concentrations of GMI, without EGF): dose-dependent decrease in invasion
TGI (HL-60(TB)): >1.25E2
Percent Growth (HL-60(TB); Log10 Concentration 0.1): 105%
Percent Growth (HL-60(TB); Log10 Concentration 1.1): 105%
Percent Growth (HL-60(TB); Log10 Concentration 2.1): 92%
Percent Growth (HL-60(TB); Log10 Concentration −0.9): 99%
Percent Growth (HL-60(TB); Log10 Concentration −1.9): 100%
Growth Percent (HL-60(TB); one dose): 116.48%
TGI (MOLT-4; MOLT-4): >1.25E2
Percent Growth (MOLT-4; MOLT-4, Log10 Concentration 0.1): 103%
Percent Growth (MOLT-4; MOLT-4, Log10 Concentration 1.1): 62%
Percent Growth (MOLT-4; MOLT-4, Log10 Concentration 2.1): 1%
Percent Growth (MOLT-4; MOLT-4, Log10 Concentration −0.9): 97%
Percent Growth (MOLT-4; MOLT-4, Log10 Concentration −1.9): 95%
Growth Percent (MOLT-4; MOLT-4, one dose): 44.75%
GI50 (MOLT-4; MOLT-4, in µg/mL): 1.99E1
TGI (MALME-3M): >1.25E2
Percent Growth (MALME-3M; Log10 Concentration 0.1): 118%
Percent Growth (MALME-3M; Log10 Concentration 1.1): 114%
Percent Growth (MALME-3M; Log10 Concentration 2.1): 74%
Percent Growth (MALME-3M; Log10 Concentration −0.9): 102%
Percent Growth (MALME-3M; Log10 Concentration −1.9): 100%
Growth Percent (MALME-3M; one dose): 114.17%
TGI (SK-MEL-28; SK-MEL-28): >1.25E2
Percent Growth (SK-MEL-28; SK-MEL-28, Log10 Concentration 0.1): 110%
Percent Growth (SK-MEL-28; SK-MEL-28, Log10 Concentration 1.1): 98%
Percent Growth (SK-MEL-28; SK-MEL-28, Log10 Concentration 2.1): 72%
Percent Growth (SK-MEL-28; SK-MEL-28, Log10 Concentration −0.9): 103%
Percent Growth (SK-MEL-28; SK-MEL-28, Log10 Concentration −1.9): 98%
Growth Percent (SK-MEL-28; SK-MEL-28, one dose): 106.96%
TGI (IGROV1; IGROV1): >1.25E2
Percent Growth (IGROV1; IGROV1, Log10 Concentration 0.1): 117%
Percent Growth (IGROV1; IGROV1, Log10 Concentration 1.1): 62%
Percent Growth (IGROV1; IGROV1, Log10 Concentration 2.1): 30%
Percent Growth (IGROV1; IGROV1, Log10 Concentration −0.9): 98%
Percent Growth (IGROV1; IGROV1, Log10 Concentration −1.9): 103%
Growth Percent (IGROV1; IGROV1, one dose): 30.07%
GI50 (IGROV1; IGROV1, in µg/mL): 2.94E1
TGI (OVCAR-8; OVCAR-8): >1.25E2
Percent Growth (OVCAR-8; OVCAR-8, Log10 Concentration 0.1): 99%
Percent Growth (OVCAR-8; OVCAR-8, Log10 Concentration 1.1): 91%
Percent Growth (OVCAR-8; OVCAR-8, Log10 Concentration 2.1): 31%
Percent Growth (OVCAR-8; OVCAR-8, Log10 Concentration −0.9): 95%
Percent Growth (OVCAR-8; OVCAR-8, Log10 Concentration −1.9): 98%
Growth Percent (OVCAR-8; OVCAR-8, one dose): 76.68%
GI50 (OVCAR-8; OVCAR-8, in µg/mL): 6.00E1
TGI (786-0; 786-0): >1.25E2
Percent Growth (786-0; 786-0, Log10 Concentration 0.1): 111%
Percent Growth (786-0; 786-0, Log10 Concentration 1.1): 73%
Percent Growth (786-0; 786-0, Log10 Concentration 2.1): 4%
Percent Growth (786-0; 786-0, Log10 Concentration −0.9): 99%
Percent Growth (786-0; 786-0, Log10 Concentration −1.9): 100%
Growth Percent (786-0; 786-0, one dose): 74.75%
GI50 (786-0; 786-0, in µg/mL): 2.70E1
TGI (TK-10; TK-10): 4.91E0
Percent Growth (TK-10; TK-10, Log10 Concentration 0.1): 106%
Percent Growth (TK-10; TK-10, Log10 Concentration 1.1): −72%
Percent Growth (TK-10; TK-10, Log10 Concentration 2.1): −100%
Percent Growth (TK-10; TK-10, Log10 Concentration −0.9): 98%
Percent Growth (TK-10; TK-10, Log10 Concentration −1.9): 96%
Growth Percent (TK-10; TK-10, one dose): −92.37%
GI50 (TK-10; TK-10, in µg/mL): 2.57E0
LC50 (TK-10; TK-10, in µg/mL): 9.38E0
TGI (DU-145; DU-145): >1.25E2
Percent Growth (DU-145; DU-145, Log10 Concentration 0.1): 109%
Percent Growth (DU-145; DU-145, Log10 Concentration 1.1): 71%
Percent Growth (DU-145; DU-145, Log10 Concentration 2.1): 9%
Percent Growth (DU-145; DU-145, Log10 Concentration −0.9): 99%
Percent Growth (DU-145; DU-145, Log10 Concentration −1.9): 101%
Growth Percent (DU-145; DU-145, one dose): 39.22%
GI50 (DU-145; DU-145, in µg/mL): 2.76E1
TGI (HS 578T): >1.25E2
Percent Growth (HS 578T; Log10 Concentration 0.1): 108%
Percent Growth (HS 578T; Log10 Concentration 1.1): 96%
Percent Growth (HS 578T; Log10 Concentration 2.1): 64%
Percent Growth (HS 578T; Log10 Concentration −0.9): 106%
Percent Growth (HS 578T; Log10 Concentration −1.9): 104%
Growth Percent (SK-MEL-2): 105.92%
